{
  "source": "paper PMC1283537",
  "about": "(2005)",
  "binders": {"B1": {"name": "PP1 (Glc7) (protein)", "chain": "MDSQPVDVDNIIDRLLEVRGSKPGQQVDLEENEIRYLCSKARSIFIKQPILLELEAPIKICGDIHGQYYDLLRLFEYGGFPPESNYLFLGDYVDRGKQSLETICLLLAYKIKYPENFFILRGNHECASINRIYGFYDECKRRYNIKLWKTFTDCFNCLPIAAIIDEKIFCMHGGLSPDLNSMEQIRRVMRPTDIPDVGLLCDLLWSDPDKDIVGWSENDRGVSFTFGPDVVNRFLQKQDMELICRAHQVVEDGYEFFSKRQLVTLFSAPNYCGEFDNAGAMMSVDESLLCSFQILKPAQKSLPRQAGGRKKK", "modifications": "fluorescently labelled peptide"}},
  "biological_target": "T1, Scd5 DxxDxxxD motif peptide (Saccharomyces cerevisiae, UniProt P34758)",
  "T1 chain": "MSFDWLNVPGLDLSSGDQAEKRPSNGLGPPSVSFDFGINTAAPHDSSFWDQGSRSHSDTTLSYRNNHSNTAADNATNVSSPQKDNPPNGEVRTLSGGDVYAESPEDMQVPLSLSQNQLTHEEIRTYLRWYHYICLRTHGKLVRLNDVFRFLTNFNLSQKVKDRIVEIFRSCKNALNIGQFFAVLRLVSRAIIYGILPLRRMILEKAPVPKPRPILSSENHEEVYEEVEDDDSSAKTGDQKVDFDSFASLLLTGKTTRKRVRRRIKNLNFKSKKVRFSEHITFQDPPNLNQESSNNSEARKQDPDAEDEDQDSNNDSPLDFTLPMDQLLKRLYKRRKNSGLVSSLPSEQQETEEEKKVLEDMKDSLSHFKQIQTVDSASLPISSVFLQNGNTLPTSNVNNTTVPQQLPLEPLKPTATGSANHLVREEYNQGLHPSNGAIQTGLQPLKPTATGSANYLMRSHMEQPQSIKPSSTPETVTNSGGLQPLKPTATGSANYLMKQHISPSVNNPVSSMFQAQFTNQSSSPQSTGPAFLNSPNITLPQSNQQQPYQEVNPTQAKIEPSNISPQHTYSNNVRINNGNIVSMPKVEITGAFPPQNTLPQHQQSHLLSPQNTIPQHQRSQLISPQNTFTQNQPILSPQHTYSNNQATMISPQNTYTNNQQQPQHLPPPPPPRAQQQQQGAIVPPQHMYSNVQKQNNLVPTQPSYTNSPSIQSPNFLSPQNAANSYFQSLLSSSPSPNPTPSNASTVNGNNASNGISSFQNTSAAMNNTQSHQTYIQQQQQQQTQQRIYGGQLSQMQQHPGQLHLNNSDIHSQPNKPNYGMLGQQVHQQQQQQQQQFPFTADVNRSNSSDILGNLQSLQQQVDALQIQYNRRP",
  "assay": "fluorescence polarization",
  "data": [
    {"binder": "B1", "values": [
      {"measurement": "Kd", "result": 22, "unit": "µM"}
    ]}
  ]
}
